# Several values for one entry are separate records, joined by “and”; a condition that tells them apart may be missing. Equal entries are not always repeated.
# B1: PKM2 in Mtx2 KO H9C2 cells (cross-linking) (enzyme)
# chain: not shown
# notes: pyruvate kinase PKM, splice isoform M2; also called dimeric PKM2; source: Mtx2 KO H9C2 cells overexpressing MTX2 mutants, H/R
# Molecular target: the molecule itself
# Experiment: cross-linking; glutaraldehyde cross-linking, Western blot of PKM2 oligomers; Mtx2 KO H9C2 cells overexpressing MTX2 mutants, H/R
protein,measurement,value
B1,stoichiometry N,2 and 4
